# Columns and labels:
# Assay type in all cases: cell-based, Human
# [1] = tested on: monocytes and purified T cells; experiment: Reconstitution/fixation study: T cell proliferation with preincubated monocytes ([3H]TdR); conditions: TT-pulsed monocytes fixed with 0.05% glutaraldehyde before or after sCD26; FIGS. 12A, 12B
# Method: All cells were preincubated in the standard medium for 24 h to minimize the risk of potential interference from sCD26 present in human serum (Tanaka et al., 1993). In these studies, cells were incubated in 96-well plates (200 μl/well; Falcon, Franklin Lakes, N.J.). For the time-course study, 1.0×10^5 PBMC were incubated with 0.5 μg/ml TT for 16 h. Then, 0.5 μg/ml sCD26 was added to the well and was incubated for 0, 6, 12, 24, 48, 72, and 96 h. The day when the first sCD26 was added to the culture well was defined as day 0 of culture. All assays in proliferation experiments were performed on day 7 of culture after cells were incubated at 37° C. in a 5% CO2 humidified atmosphere. For the reconstitution study, 0.5×10^6 of monocytes were preincubated with TT, at a concentration of 0.5 μg/ml with different concentrations of sCD26 for 24 h. Monocytes were washed with PBS, and then 1×10^4/well of preincubated monocytes were subjected to the assay with 1×10^5/well of purified T cells from the same donor as the prepared monocytes. […]
# T-cell proliferation induced by APC was measured by [^3H]TdR (ICN Radiochemicals, Irvine, Calif.) uptake. Seven-day-incubated cells were pulsed with 1 μCi/well of [^3H]TdR 8 h before harvesting onto a glass-fiber filter (Wallac, Turk, Finland), and the incorporated radioactivity was quantified by a liquid scintillation counter (Wallac).
# [2] = tested on: PBMC subpopulations (CD3, CD14, CD19, CD56); experiment: sCD26-OG incorporation into PBMC subpopulations (flow cytometry); conditions: 24 h, presence or absence of TT; FIG. 9
# Method: Assessment of the PBMC population that takes up sCD26-OG was performed with PE-conjugated anti-CD3, anti-CD14, anti-CD19, and anti-CD56 mAbs (10 μg/ml). For these experiments, 1×10^6 PBMC/well were incubated in standard medium containing sCD26-OG for 24 h with or without preincubation with TT. Cells were then washed twice in ice-cold PBS, followed by incubation for 2 min in acidic PBS (pH 3.0) to strip any sCD26-OG attached to the cell surface. Cells were subsequently washed in ice-cold PBS and were incubated with mouse Ig isotypes (1 μg/ml) to block nonspecific binding; this was followed by reaction with PE-conjugated mabs.
# (§1) Flow cytometric analysis of 10,000 viable cells was conducted on FACSCalibur (BD Biosciences, Mountain View, Calif.). Each experiment was repeated at least three times, and the results were provided in the form of a histogram of a representative experiment, or increased mean percent±SE fluorescent intensity compared with control or untreated cells.
# [3] = tested on: PBMC; experiment: TT-induced proliferation of PBMC, time-course ([3H]TdR incorporation); conditions: DPPIV-deficient mutant sCD26 in PBMC time-course
# Excerpt: Human PBMC, collected from healthy adult volunteers who were immunized with TT within two years before donation, were isolated by centrifugation on Ficoll/Paque (Amersham Pharmacia Biotech, Piscataway, N.J.). PBMC were directly used for the time-course studies. For the reconstitution studies, PBMC were further purified into T cell fractions and APC fractions. To obtain a highly purified T cell population, PBMC were separated into an E rosette-positive (E^+) population and were used as resting T cells as determined by flow cytometric analysis (FACSCalibur; Nippon BD Biosciences, Tokyo, Japan) using an FITC-labeled anti-CD3 mAb (BD PharMingen, San Diego, Calif.) with purity being >95%. To obtain APC, an E rosette-negative (E^−) population was adhered to plastic plates for 4 h at 37° C., and adherent cells were used as APC. Monocytes were either purified by a flow cytometer on the basis of PE-labeled anti-CD14 mAb (BD PharMingen)-oriented parameter, or by negative selection through the use of immunomagnetic beads coated with an anti-CD3, CD7, CD19, CD45RA, CD56, and IgE mAb Qailtenyi Biotec, Auburn, Calif.) with purity being >95%. […]
# T-cell proliferation induced by APC was measured by [^3H]TdR (ICN Radiochemicals, Irvine, Calif.) uptake. […]
# [4] = tested on: monocytes; experiment: Confocal laser microscopy of sCD26 uptake
# Method: For fluorescent microscopy studies of uptake of sCD26 by monocytes; purified monocytes were incubated with sCD26-OG (1 μg/ml) with or without preincubation with. TT (0.5 μg/ml). Cells were then washed in ice-cold PBS twice and were incubated in acidic PBS (pH 3.0) to strip any sCD26-OG attached to the cell surface. The cells were then attached to microslide glass (Matsunami Glass, Tokyo, Japan) and fixed with 3% paraformaldehyde in PBS for 15 min at room temperature. Cells were blocked with mouse Ig isotypes (1 μg/ml) for 30 min at 4° C., followed by incubation with biotinylated anti-CD14 (10 μg/ml) for 30 min at 4° C., then washed with ice-cold PBS twice and incubated with streptavidin-conjugated Texas red conjugate (1/200; Beckman Coulter) for 30 min at 4° C. In studies of sCD26 uptake via M6P/IGF-IIR on monocytes, purified monocytes were incubated with or without TT for 16 h, and sCD26-OG and M6P/IGF-IIR-red were added to the culture well after being blocked with mouse Ig isotypes (1 μg/ml) for 30 min at 4° C. Cells were then incubated for 30 min at 4° C. For detection of cell surface colocalization, cells were washed in ice-cold PBS twice and were attached to microslide glass, followed by fixation with 3% paraformaldehyde in PBS for 15 min at room temperature. […]
# [5] = tested on: CD86 mRNA in monocytes; experiment: Relative quantitative RT-PCR assay; conditions: monocytes with TT 16 h then sCD26 0.5 μg/ml 24 h
# [6] = tested on: CD86 expression on monocytes; experiment: Surface expression on monocytes (flow cytometry); conditions: after TT and sCD26 stimulation; FIG. 13
# Method: In studies assessing the expression of CD80, CD86, and HLA-DR on purified monocytes (0.5×10^6 monocytes/well), monocytes were preincubated with or without TT (0.5 μg/ml) for 16 h. Following incubation with sCD26 (0.5 μg/ml) for 24 h, FITC-conjugated CD80, CD86, and HLA-DR mAbs (10 μg/ml) were used with PE-conjugated anti-CD14 (10 μg/ml) to gate exclusively on the monocyte population. In experiments assessing the effect of M6P on cellular uptake of sCD26, purified monocytes (0.5×10^6 monocytes/well) were incubated with the appropriate concentration of M6P in the presence or absence of sCD26-OG for 24 h in standard medium. Cells were then washed twice in ice-cold PBS, followed by incubation for 2 min in acidic PBS (pH 3.0) to strip any sCD26-OG attached to the cell surface. Cells were washed in ice-cold PBS and were incubated with mouse Ig isotypes (1 μg/ml) to block nonspecific binding; this was followed by reaction with PE-conjugated anti-CD14 (10 μg/ml) to gate exclusively on monocyte population.
# as §1
molecule,measurement,setting,value
"sCD26/DPPIV^−: mutant sCD26 without DPPIV activity, Ser630 replaced by Ala at the active site (protein) MKGLLGAAALVTIITVPVVLLNKGTDDATADSRKTYTLTDYLKNTYRLKLYSLRWISDHEYLYKQENNILVFNAEYGNSSVFLENSTFDEFGHSINDYSISPDGQFILLEYNYVKQWRHSYTASYDIYDLNKRQLITEERIPNNTQWVTWSPVGHKLAYVWNNDIYVKIEPNLPSYRITWTGKEDIIYNGITDWVYEEEVFSAYSALWWSPNGTFLAYAQFNDTEVPLIEYSFYSDESLQYPKTVRVPYPKAGAVNPTVKFFVVNTDSLSSVTNATSIQITAPASMLIGDHYLCDVTWATQERISLQWLRRIQNYSVMDICDYDESSGRWNCLVARQHIEMSTTGWVGRFRPSEPHFTLDGNSFYKIISNEEGYRHICYFQIDKKDCTFITKGTWEVIGIEALTSDYLYYISNEYKGMPGGRNLYKIQLSDYTKVTCLSCELNPERCQYYSVSFSKEAKYYQLRCSGPGLPLYTLHSSVNDKGLRVLEDNSALDKMLQNVQMPSKKLDFIILNETKFWYQMILPPHFDKSKKYPLLLDVYAGPCSQKADTVFRLNWATYLASTENIIVASFDGRGSGYQGDKIMHAINRRLGTFEVEDQIEAARQFSKMGFVDNKRIAIWGWAYGGYVTSMVLGSGSGVFKCGIAVAPVSRWEYYDSVYTERYMGLPTPEDNLDHYRNSTVMSRAENFKQVEYLLIHGTADDNVHFQQSAQISKALVDVGVDFQAMWYTDEDHGIASSTAHQHIYTHMSHFIKQCFSLP","enhanced T cell proliferation, fixation study",[1],seen only when the monocytes were incubated with sCD26/DPPIV^+ before fixation
same,PBMC population that takes up sCD26,[2],preferentially taken up by CD14-positive monocytes
same,enhancing effect of TT-induced T cell proliferation,[3],not observed
same,intracellular detection of sCD26 in monocytes,[4]; 36 h after incubation of monocytes with sCD26,no longer detectable intracellularly
same,uptake by monocytes (confocal microscopy),[4]; sCD26-OG 1 μg/ml,clearly taken up by monocytes
same,CD86 mRNA levels (RT-PCR),[5],did not demonstrate enhanced CD86 mRNA levels
same,CD86 mRNA levels (RT-PCR),[5]; listed as sCD26/DPPIV^+,increased mRNA levels
same,CD86 expression on monocytes,[6],did not affect CD86 expression

# — US20060093553A1, “Cd26-based therapies for cancers and immune disease” (priority 2002, published 2006)
